Assay [1] concerns the target SIV NEF 201-225 peptide (LP4) on autologous macaque B-LCL (SIV; rhesus macaque (Macaca mulatta)).
The target of assay [2] is SIV NEF 155-178 peptide (LP3) on autologous macaque B-LCL (SIV; rhesus macaque (Macaca mulatta)).
The target of assay [3] is SIV NEF 125-138 peptide on autologous macaque B-LCL (SIV; rhesus macaque (Macaca mulatta)).
The target of assay [4] is SIV NEF 164-178 peptide on autologous macaque B-LCL (SIV; rhesus macaque (Macaca mulatta)).
Assay [5] deals with SIV NEF 155-169 peptide on autologous macaque B-LCL (SIV; rhesus macaque (Macaca mulatta)).
Assay [6] addresses SIV NEF 155-178 peptide (LP3) on autologous macaque B-LCL (SIV; rhesus macaque (Macaca mulatta)). This is another data set of the same source.
For assay [7], the target named is SIV NEF 160-176 peptide on autologous macaque B-LCL (SIV; rhesus macaque (Macaca mulatta)).
The target of assay [8] is SIV NEF 133-147 peptide on autologous macaque B-LCL (SIV; rhesus macaque (Macaca mulatta)).
The target of assay [9] is SIV NEF 125-147 peptide (LP2) on autologous macaque B-LCL (SIV; rhesus macaque (Macaca mulatta)).
For assay [10], the target named is SIV NEF 211-225 peptide on autologous macaque B-LCL (SIV; rhesus macaque (Macaca mulatta)).
In assay [11] the target is SIV NEF 201-215 peptide on autologous macaque B-LCL (SIV; rhesus macaque (Macaca mulatta)).
For assay [12], the target named is SIV GAG 246-282 peptide (LP7) on autologous macaque B-LCL (SIV; rhesus macaque (Macaca mulatta)).
For assay [13], the target named is SIV GAG 165-185 peptide on autologous macaque B-LCL (SIV; rhesus macaque (Macaca mulatta)).
Assay [14] deals with SIV GAG 165-195 peptide (LP6) on autologous macaque B-LCL (SIV; rhesus macaque (Macaca mulatta)).
Assay [15] deals with SIV GAG 176-195 peptide on autologous macaque B-LCL (SIV; rhesus macaque (Macaca mulatta)).

This passage reports specific 51Cr release (CRT), E/T 70:1 (% specific lysis), specific 51Cr release (CRT), E/T 60:1 and 20:1 (percent specific chromium release) and specific 51Cr release (CRT) (percent specific chromium release) results from patent publication US5993823.

In turn, “CTL line from PBMC of immunized macaque RS21, restimulated with the mixture of the 7 peptides (cells without a defined receptor)” yielded a specific 51Cr release (CRT), E/T 70:1 (% specific lysis) in assay [1] of 35.

Substance “CTL line from PBMC of immunized macaque RS6, restimulated with the mixture of the 7 peptides (cells without a defined receptor)” registered a specific 51Cr release (CRT), E/T 70:1 (% specific lysis) in assay [2] of 40.

Turning to “CTL line from PBMC of immunized macaque RS20, restimulated with the mixture of the 7 peptides (cells without a defined receptor)”, the figures for the specific 51Cr release (CRT), E/T 60:1 and 20:1 (percent specific chromium release) in assay [3], in [8] and in assay [9] were 85, 4 and 72, respectively. The specific 51Cr release (CRT) (percent specific chromium release) in assay [4] stood at 49; in assay [5], 14; in [6], 87; in assay [7], 6.

In the case of “CTL line from PBMC of immunized macaque RS23, restimulated with the mixture of the 7 peptides (cells without a defined receptor)”, the figures for the specific 51Cr release (CRT), E/T 60:1 and 20:1 (percent specific chromium release) in assay [10] and in assay [11] were 0 and 18, respectively. This substance also registered a specific 51Cr release (CRT), E/T 70:1 (% specific lysis) in assay [1] of 42.

Take “CTL line from PBMC of immunized macaque RS7, restimulated with the mixture of the 7 peptides (cells without a defined receptor)”: in [12], the specific 51Cr release (CRT), E/T 70:1 (% specific lysis) was determined as 59.

Regarding “CTL line from PBMC of immunized macaque RS4, restimulated with the mixture of the 7 peptides (cells without a defined receptor)”, the specific 51Cr release (CRT), E/T 60:1 and 20:1 (percent specific chromium release) in assay [13] came out at 8; in assay [14], 57; in [15] it was 35.

As to “CTL line from PBMC of immunized macaque RS17, restimulated with the mixture of the 7 peptides (cells without a defined receptor)”, the results for the specific 51Cr release (CRT), E/T 60:1 and 20:1 (percent specific chromium release) in assay [4], in assay [5] and in assay [7] were 46, 0 and 0, respectively. In [2], the specific 51Cr release (CRT), E/T 70:1 (% specific lysis) was found to be 44.
